Data set [1] has as its target T1, IPK from Candidatus methanomethylophilus alvus (CMA) (Methanomethylophilus alvi, UniProt M9SEQ1).
T1 sequence (M9SEQ1 1-259): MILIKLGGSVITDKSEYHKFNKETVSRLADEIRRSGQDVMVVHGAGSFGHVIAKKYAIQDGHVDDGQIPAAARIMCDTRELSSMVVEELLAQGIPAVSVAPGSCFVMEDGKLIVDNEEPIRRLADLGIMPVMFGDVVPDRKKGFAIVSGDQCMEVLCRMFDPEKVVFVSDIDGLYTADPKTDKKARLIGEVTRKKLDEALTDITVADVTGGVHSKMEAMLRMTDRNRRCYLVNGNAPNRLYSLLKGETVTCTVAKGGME
Nature of the data set: X-ray crystal structure, […] Å. It counts as binding. Conditions: alkyl-P site, monomer A, partial occupancy with IP.

Substrate in data set [2]: C=C(C)CCOP(=O)(O)O
Nature of the data set: PK-LDH coupled assay, A340. It is filed as biochemical, Methanomethylophilus alvi. Conditions: 2 mM ATP, 5 mM MgCl2, 25 mM Tris pH 7.8, 37 °C.

Substrate in data set [3]: Cc1ccc(COP(=O)(O)O)cc1
The experiment in a line: PK-LDH coupled assay, A340. It is filed as biochemical, Methanomethylophilus alvi. Conditions: 2 mM ATP, 5 mM MgCl2, 25 mM Tris pH 7.8, 37 °C.

Substrate in data set [4]: O=P(O)(O)OCc1ccccc1
Nature of the data set: PK-LDH coupled assay, A340. It is filed as biochemical, Methanomethylophilus alvi. Conditions: 2 mM ATP, 5 mM MgCl2, 25 mM Tris pH 7.8, 37 °C.

These results are taken from paper PMC9745668 (ACS chemical biology, 2021).

Where a chain is given by its changes, count along the chain named. Names may count otherwise.

With `C=C(C)CCOP(=O)(O)OP(=O)(O)O` [IPP], the “X-ray crystal structure, 2.5 Å” value in data set [1] is “electron density for both pairs of reagents (IP/ATP and IPP/ADP) can be modeled”.

B1: IPK from Candidatus methanomethylophilus alvus (CMA) (Candidatus Methanomethylophilus alvi Mx1201; I74A) (protein)
chain: T1 sequence (M9SEQ1 1-259) with I74A
What is called Km is the concentration of substrate that gives half-maximal velocity. As a reminder, the kcat is the maximal rate divided by the concentration of active sites. One may read the kcat/Km as the second-order rate constant that governs catalysis at low substrate concentration. With B1, in data set [2], the Km stood at 220 ± 20 µM, the catalytic constant (kcat) was found to be 42 ± 2 s⁻¹ and the kcat/Km turned out to be 190000 M⁻¹ s⁻¹. Moreover, in data set [3], the Km was 80 ± 20 µM, the catalytic constant (kcat) turned out to be 1.05 ± 0.07 s⁻¹ and the catalytic efficiency (kcat/Km) worked out at 13000 M⁻¹ s⁻¹. Moreover, in data set [4], the Km was 110 ± 30 µM, the turnover number (kcat) came to 0.41 ± 0.02 s⁻¹ and the kcat/Km is 4000 M⁻¹ s⁻¹.

B2: IPK from Candidatus methanomethylophilus alvus (CMA) (Candidatus Methanomethylophilus alvi Mx1201; I146A) (protein)
chain: T1 sequence (M9SEQ1 1-259) with I146A
Turning to B2, in data set [2], the Km was determined as 160 ± 20 µM, the kcat was 68 ± 2 s⁻¹ and the kcat/Km stood at 430000 M⁻¹ s⁻¹.

B3: IPK from Candidatus methanomethylophilus alvus (CMA) (Candidatus Methanomethylophilus alvi Mx1201; V208A) (protein)
chain: T1 sequence (M9SEQ1 1-259) with V208A
As to B3, in data set [2], the Km was 75 ± 10 µM, the kcat was found to be 5.4 ± 0.1 s⁻¹ and the kcat/Km stood at 72000 M⁻¹ s⁻¹.

B4: IPK from Candidatus methanomethylophilus alvus (CMA) (Candidatus Methanomethylophilus alvi Mx1201; T209S) (protein)
chain: T1 sequence (M9SEQ1 1-259) with T209S
As for B4, in data set [2], the Km was 37 ± 8 µM, the kcat amounted to 7.2 ± 0.3 s⁻¹ and the specificity constant (kcat/Km) is 200000 M⁻¹ s⁻¹.

B5: IPK from Candidatus methanomethylophilus alvus (CMA) (Candidatus Methanomethylophilus alvi Mx1201; T209A) (protein)
chain: T1 sequence (M9SEQ1 1-259) with T209A
Regarding B5, in data set [2], the Michaelis-Menten constant (Km) was found to be 50 ± 20 µM, the kcat worked out at 0.038 ± 0.002 s⁻¹ and the kcat/Km was 800 M⁻¹ s⁻¹.

B6: IPK from Candidatus methanomethylophilus alvus (CMA) (Candidatus Methanomethylophilus alvi Mx1201; I74A/V208A) (protein)
chain: T1 sequence (M9SEQ1 1-259) with I74A, V208A
On to B6, for which, in data set [2], the Km is 750 ± 80 µM, the turnover number (kcat) is 4.9 ± 0.2 s⁻¹ and the kcat/Km was found to be 6500 M⁻¹ s⁻¹.
